# B1: PEG-mIFN-β: one PEG molecule with a molecular weight of 42,000 covalently bound to recombinant mouse interferon-β (conjugate, UniProt P01575 22-182, looked up)
# Interferon beta: INYKQLQLQERTNIRKCQELLEQLNGKINLTYRADFKIPMEMTEKMQKSYTAFAIQEMLQNVFLVFRNNFSSTGWNETIVVRLLDELHQQTVFLKTVLEEKQEERLTWEMSSTALHLKSYYWRVQRYLKLMKYNSYAWMVVRAEIFRNFLIIRRLTRNFQN
# modifications: 42 kDa PEG
# Tested on: gastric cancer peritoneal metastasis mouse models (GCIY-EGFP cells)
# Assay: Ascites accumulation in gastric cancer peritoneal metastasis mouse models, systemic (subcutaneous) administration
# Format: in vivo
# Details: subcutaneous (systemic), 5,000 U/mouse/dose, twice a week for 4 weeks; ascites collected 2 weeks after final administration; vs PBS control
# Protocol: Gastric cancer peritoneal metastasis mouse models were produced by transplanting human gastric cancer cells, GCIY-EGFP cells, intraperitoneally into male KSN nude mice in the same manner as in Example 2.
# Administration was initiated on the day after transplantation and performed twice a week for 4 weeks. Phosphate buffer (PBS) was administered to the control group in the same manner. Ascites was collected from the gastric cancer peritoneal metastasis mouse models under anesthesia 2 weeks after the final administration and the liquid volume was measured.
# The vertical axis represents the amount of ascites (median; mL).
molecule,measurement,value
B1,accumulation of ascites (amount of ascites),remarkably inhibited

# From patent US20160184446A1, “METHOD OF INHIBITING BODY CAVITY FLUID ACCUMULATION” (Toray Industries, Inc., priority 2012, published 2016)
